From CN112574305A (UNIV TSINGHUA RES INST SHENZHEN, dated 2021)

Columns and labels:
mBDNF = target: T1, mBDNF (UniProt P23560 129-247, limits assumed); assay: ELISA, mBDNF coated at 2 μg/ml, purified antibody added, OD450
T1 construct: mature; also called 成熟BDNF
T1 sequence (looked up): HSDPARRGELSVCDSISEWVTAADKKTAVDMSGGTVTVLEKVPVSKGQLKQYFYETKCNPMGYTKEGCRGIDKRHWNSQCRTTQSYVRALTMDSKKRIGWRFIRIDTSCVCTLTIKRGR

ProBDNF = target: T2, ProBDNF; assay: ELISA, OD450
T2 sequence (peptide): CDQKVRPNEENNKDA

B1: 抗ProBDNF抗体 (antibody, IgG2b, V domains shown)
VH: QVQLQQSGPELVKPGASVTISCKTSAYGFSSSWMNWVKQRPGQGLEWIGRIYPGDGETNYNGKFMGKATLTADKSSNTVYMHLSSLTSVDSAVYFCTRRELVYWGQGTLVTVSA
VL: DIVLTQSPASLAVSLGQRATISCRTSESVDTYGNSFIHWYQQKPGQPPKLLIYRASRLESGIPARFSGSGSRTDFTLTINPVEADDVATYYCQQSYEDPWTFGGGTKLEIK
notes: Mouse hybridoma antibody, made recombinantly in 293 cells; also called 针对前体脑源性神经营养因子的抗体; 实施例2提供的纯化抗体
mBDNF
  binding result: no binding
ProBDNF
  抗原浓度 (lowest antigen concentration detected): 1.95 ng/mL
